Measurements as given in US10723771B2, “Modified microorganisms expressing SagA as anti-infective agents, probiotics and food components” (priority 2015, dated 2020).
Entries after “also recorded” stand apart in the source; their conditions may differ.

Assays:
S. Typhimurium [1] = test: Liquid-treatment pulsed infection assay: C. elegans treated in liquid wells, then infected with S. Typhimurium, survival scored; type: in vivo; settings: for Inhibition of S. Typhimurium pathogenesis (C. elegans survival): liquid wells 2 hours before infection, protein 10-20 μg/mL, defined fragments 50 μM, digests 100 μL; for Inhibition of S. Typhimurium pathogenesis (survival) in tol-1(nr2033) animals: tol-1(nr2033) C. elegans, liquid treatment
From the text: C. elegans infection assays: For each condition, 3 plates of 30 worms each (total 90 worms) were scored, unless otherwise noted. Mean percent survival and standard deviation of the triplicate plates for a representative experiment are shown for extended data figures. Mean percent survival and statistical comparisons by log rank test after Bonferroni correction for multiple comparisons using OASIS software are shown in the figures. E. faecium refers to strain Com15 unless otherwise noted in the figure legends. Worms were handled using a Leica M60 microscope and imaged using a Leica IC80 HD camera.
Liquid-treatment pulsed infection assay: Synchronized young adult worms were transferred to 96-well plate wells containing 32% BHI media, culture supernatant, or live cultures. For protein treatments, 10-20 μg/mL of protein in PBS was included in each well. For treatment with peptidoglycan digests, 100 μL of each digest was added to each well. For treatment with defined peptidoglycan fragments, 50 μM of each fragment in a mixture of PBS and water was included in each well. MDP, GlcNAc, and MurNAc were purchased from Sigma-Aldrich. MurNAc-L-Ala was synthesized as described below in Scheme 51. After 2 hours, worms were washed and transferred to lawns of IR715 grown on BHI plates for 1 day. Then, worms were washed and transferred to lawns of OP50 grown on NGM plates (Day 0). Worms were maintained on OP50-NGM plates and survival was scored.
Treatment of culture supernatants: Proteinase K treatment: Culture supernatant or media was digested with 0.1 mg/mL of proteinase K in the presence of 1 mM CaCl2 for 2 hours at 37° C. Then, 1 mM EGTA was added, and digestions were used in the liquid-treatment pulsed infection assay.
Trichloroacetic acid precipitation: Culture supernatant or media was precipitated with TCA (final concentration of 10%) overnight at 4° C. Precipitated proteins were pelleted and rinsed 2 times in acetone, then air-dried and resuspended in BHI media before use in the liquid-treatment pulsed infection assay. 10-kDa MWCO column filtration: E. faecium culture supernatant or media was filtered through 10-kDa MWCO columns (Vivaspin GE Healthcare), and the flow-thru was used in the liquid-treatment pulsed infection assay.
5-kDa MWCO column filtration of E. coli culture supernatants: E. coli BL21-RIL(DE3) expressing SagA-His or AS-His were induced in BHI media instead of LB as described above. Portions of the culture supernatants were filtered through 5-kDa MWCO columns (Vivaspin GE Healthcare), and the unfiltered supernatants, column concentrate, and column flow-thru were used in the liquid-treatment pulsed infection assay.
Peptidoglycan Digests: 100 μg of E. coli peptidoglycan (Invivogen) was digested with 20 μg lysozyme (Sigma) and 20 μg of SagA-His or AS-His overnight in a mixture of PBS and water at 37° C. Digests were then filtered through 5-kDa MWCO columns (Vivaspin GE Healthcare), and the flow-thru was used in the liquid-treatment pulsed infection assay.

S. Typhimurium [2] = test: Colonization and S. Typhimurium infection of mice (weight loss, fecal burden, survival); type: in vivo; settings: MurNAc alone
Method: Specific pathogen-free (SPF) mice were gavaged with either a single dose of 20 mg streptomycin or a daily dose of AMNV antibiotic cocktail (4 mg ampicillin, 2 mg metronidazole, 4 mg neomycin, and 2 mg vancomycin) for 7-14 days as indicated in the figure legends. Bacterial cultures were washed and resuspended in sterile PBS at 10^9/mL for E. faecium, E. faecalis, and L. plantarum or at 10^7/mL (SPF) or 10^3/mL (GF) for S. Typhimurium. Mice were colonized by gavage with 100 uL of the indicated bacterial suspension 4 hours before infection (for streptomycin-treated mice) or 2-7 days before infection (for AMNV and GF gnotobiotic mono-colonized mice). Colonization was followed by infection with S. Typhimurium by oral gavage at the doses indicated above and in the figure legends. Weight loss was monitored from just before infection, and mice were euthanized when they reached 80% baseline weight or when they appeared hunched or moribund, whichever occurred first. Death was not used as an end-point. Colony-forming units (CFU) in the feces were determined by plating 5 serial dilutions of feces suspended in sterile PBS on selective agars: Salmonella Shigella Agar (BD 211597) for S. Typhimurium, Enterococcosel Agar (BD 212205) for E. faecium and E. facealis, and MRS Agar with 8 ug/mL chloramphenicol for L. plantarum-vector and -SagA. Resulting quantities were normalized to feces weight.

S. Typhimurium [3] = test: Worm CFU measurements, S. Typhimurium; type: in vivo, C. elegans; settings: protein-treated infected animals
Method: Worm CFU measurements: Protocol for CFU measurements was adapted from previous protocol. Briefly, 5-20 worms were rinsed in drops of S buffer, and allowed to crawl free of bacteria on a sterile plate. These worms were then mechanically lysed in PBS using microtubes and pestles (Kimble-Chase). Serial dilutions of worm homogenate were plated on Salmonella-Shigella agar (BD BBL) or Enterococcosel (BD BBL) agar plates, and plates were incubated at 37° C. overnight.

S. Typhimurium [4] = test: Growth of S. Typhimurium in the presence of SagA; type: cell-based; settings: LB media + 10 μg/ml protein
Method: (§1) Growth of E. coli and S. Typhimurium in the presence of SagA: LB media was inoculated with overnight cultures 1:100. Protein was added at 10 μg/mL and volumes were normalized across all conditions with PBS. OD600 was measured at given time points. Growth of OG1RF-sagA: BHI media was inoculated with overnight cultures 1:100. Chloramphenicol was added at 10 μg/mL as indicated. OD600 was measured at given time points.

E. coli BL21-RIL(DE3) [5] = test: Growth of E. coli in the presence of SagA; type: cell-based; settings: LB media + 10 μg/ml protein
Method: as §1

[6] = tested on: SPI-1 type III protein secretion in S. Typhimurium; test: Salmonella protein secretion assay; type: cell-based; settings: LB + 10 μg/ml protein
Method: Salmonella protein secretion assay: For each condition, 2 mL of LB was inoculated with overnight cultures 1:30. Protein was added to media at 10 μg/mL and volumes were normalized across all conditions with PBS. Cultures were grown for 4 hours, shaking at 37° C., the pelleted at 7000 g for 5 minutes. 1 mL of culture supernatant was precipitated with trichloro acetic acid (TCA) at a final concentration of 10% overnight at 4° C. Precipitated proteins were pelleted at 20,800 g for 30 minutes, rinsed 2 times in acetone, then air-dried. Proteins were then separated by SDS-PAGE and visualized by Coomassie staining.

E. coli BL21-RIL(DE3) [7] = test: Growth (OD600) of E. coli expressing SagA, AS or SagA-SS; type: cell-based; settings: IPTG-induced expression in E. coli BL21-RIL(DE3)
Method: Bacterial growth curves: Growth of E. coli expressing SagA, AS, or SagA-SS: Cultures were grown as described for protein purification, except that OD600 was monitored at given time points using a Spectromax M2e spectrophotometer.

[8] = ANTS labeling assay of peptidoglycan digests; type: biochemical; settings: purified E. coli peptidoglycan digested with lysozyme and the protein
Method: E. coli supernatants were prepared by inoculating cultures 1:50 with an overnight culture of E. coli BL21-RIL(DE3) expressing SagA-His6 or AS-His6. Cultures were grown for 2 hours, then induced with 1 mM IPTG, and grown for an additional 2 hours. Enterococcus supernatants were prepared by growing cultures overnight. Cultures were pelleted, and supernatant was filtered through 10 kDa MWCO columns (Millipore Microcon). For peptidoglycan digests, 100 μg of E. coli peptidoglycan was digested with 20 μg lysozyme and 20 μg of SagA-His or AS-His overnight in a mixture of PBS and water at 37° C. Digests were filtered through 10 kDa MWCO columns. Culture supernatants, peptidoglycan digests, and defined peptidoglycan fragments were dried by speed-vac before ANTS labeling. ANTS labeling was using established techniques. 10 μl of ANTS reaction mix was added to each tube of dried material (1:1 mixture of 0.2 M ANTS (in 3:17 acetic acid:water): 1 M NaCNBH3 (in DMSO)). Reactions were incubated overnight at 37° C. 0.5-3.5 μL of the ANTS labeled mixtures were mixed 1:1 with 40% glycerol and samples were separated by native PAGE on a hand-cast 37-40% Tris-glycine acrylamide gel (19:1 polyacrylamide:bisacrylamide, with a 20% acrylamide stack) at 150 V for ˜3 hours or 80 V for ˜6 hours. Empty lanes adjacent to sample lanes were loaded with samples of ANTS labeled Ala-D-γ-Glu-Lys-D-Ala-D-Ala (Sigma). […]

With `CC(=O)N[C@H]1C(O)O[C@H](CO)[C@@H](O)[C@@H]1O[C@H](C)C(=O)N[C@@H](C)C(=O)N[C@H](CCC(=O)O)C(=O)O` (stereo partly drawn) [MDP, MurNAc-L-Ala-D-Glu] as the molecule, how does the “Inhibition of S. Typhimurium pathogenesis (C. elegans survival)” value (“Inhibition … (C. elegans survival)” below) (S. Typhimurium [1]) read?
The value was “not protective; also recorded: did not inhibit S. Typhimurium pathogenesis”.

For “N-acetylmuramic acid-L-alanine [MurNAc-L-Ala]”, which “Inhibition … (C. elegans survival)” value (S. Typhimurium [1]) is on record?
Its value is “can inhibit S. Typhimurium pathogenesis; also recorded: sufficient to inhibit S. Typhimurium pathogenesis”.

And the “Inhibition of S. Typhimurium pathogenesis (survival) in tol-1(nr2033) animals” value (S. Typhimurium [1])?
Its value is “not protective”.

What about the “Inhibition of S. Typhimurium pathogenesis (survival) in tol-1(nr2033) animals” value (S. Typhimurium [1]; listed as MurNAc-Ala) of the same molecule?
Its value is “do not inhibit S. Typhimurium pathogenesis”.

With `CC(=O)N[C@H]1C(O)O[C@H](CO)[C@@H](O)[C@@H]1O` (some centres unmarked) [GlcNAc, N-acetylglucosamine] as the molecule, how does the “Inhibition … (C. elegans survival)” value (S. Typhimurium [1]) read?
Its value is “not protective; also recorded: did not inhibit S. Typhimurium pathogenesis”.

Which results are given for `CC(=O)N[C@H]1C(O)O[C@H](CO)[C@@H](O)[C@@H]1O[C@H](C)C(=O)O` (some centres unmarked) [MurNAc]?
Inhibition of S. Typhimurium pathogenesis (C. elegans survival) (S. Typhimurium [1]): can inhibit S. Typhimurium pathogenesis; also recorded: sufficient to inhibit S. Typhimurium pathogenesis; Inhibition of S. Typhimurium pathogenesis (survival) in tol-1(nr2033) animals (S. Typhimurium [1]): do not inhibit S. Typhimurium pathogenesis; also recorded: not protective; Protection of antibiotic-treatment mice from S. Typhimurium pathogenesis (S. Typhimurium [2]): insufficient to protect antibiotic-treatment mice from S. Typhimurium pathogenesis

B1: SagA: E. faecium secreted antigen A, NlpC/p60 peptidoglycan hydrolase, SEQ ID NO:1, purified His6-tagged (protein, listed as Enterococcus faecium)
chain: MKKSLISAVMVCSMTLTAVASPIAAAADDFDSQIQQQDQKIADLKNQQADAQSQIDALESQVSEINTQAQDLLAKQDTLRQESAQLVKDIADLQERIEKREDTIQKQAREAQVSNTSSNYIDAVLNADSLADAIGRVQAMTTMVKANNDLMEQQKQDKKAVEDKKAENDAKLKELAENQAALESQKGDLLSKQADLNVLKTSLAAEQATAEDKKADLNRQKAEAEAEQARIREQQRLAEQARQQAAQEKAEKEAREQAEAEAQATQASSTAQSSASEESSAAQSSTTEESSSAAQSSTTEESTTAPESSTTEESTTAPESSTTEESTTVPESSTTEESTTVPESSTTEESTTVPESSTTEESTTVPETSTEESTTPAPTTPSTDQSVDPGNSTGSNATNNTTNTTPTPTPSGSVNGAAIVAEAYKYIGTPYVWGGKDPSGFDCSGFTRYVYLQVTGRDIGGWTVPQESAGTKISVSQAKAGDLLFWGSPGGTYHVAIALGGGQYIHAPQPGESVKVGSVQWFAPDFAVSM
modifications: His6 tag
With B1 as the molecule, how does the “Inhibition … (C. elegans survival)” value (S. Typhimurium [1]) read?
The value was “inhibits S. Typhimurium pathogenesis”.

What about the “Inhibition … (C. elegans survival)” value (S. Typhimurium [1]; listed as SagA-His6) of the same molecule?
Its value is “sufficient to inhibit S. Typhimurium pathogenesis”.

And the “S. Typhimurium colonization of C. elegans (imaging and CFU)” value (S. Typhimurium [3])?
The value was “does not affect S. Typhimurium colonization of C. elegans”.

And the “Effect on growth rate of S. Typhimurium in culture” value (S. Typhimurium [4])?
Its value is “no effect on the growth rate of S. Typhimurium”.

What about the “Effect on growth rate of E. coli in culture” value (E. coli BL21-RIL(DE3) [5]) of the same molecule?
Its value is “no effect on the growth rate of E. coli”.

And the “Effect on secretion of S. Typhimurium type III protein effectors (SPI-1) in culture” value [6]?
Its value is “does not affect SPI-1 secretion in culture”.

What about the “Effect on secretion of S. Typhimurium type III protein effectors (SPI-1) in culture” value ([6]; listed as recombinant SagA) of the same molecule?
Its value is “no effect”.

What about the “E. coli cell lysis (culture optical density) on induced expression” value (E. coli BL21-RIL(DE3) [7]) of the same molecule?
The value was “decrease in culture optical density”.

And the “Peptidoglycan cleavage product (ANTS visualization)” value [8]?
The value was “yielded a unique peptidoglycan cleavage product with similar mobility to MurNAc-L-Ala”.
